A word on the Kd: it is the concentration at which binding is half-saturated. Low values mean higher affinity, high ones lower affinity.

The subject of the first data set is 6xHis-Brd4(1-720) (human). The experiment in a line: streptavidin bead pull-down, Coomassie, Hill fit. The settings on record: no added Mg2+; DNA pull-down: 50 mM HEPES pH 7.5, 100 mM NaCl, 0.5% NP40, 2 mM BME, 8.3 uM DNA; HTRF: 25 mM Tris pH 7.4, 150 mM NaCl, 2 mM MgCl2, 0.1% NP40, 1 mg/ml BSA ….
Take 40-bp SMYD1 DNA: the Kd worked out at 2140 nM. This lies in the single-digit micromolar range.

The target of another data set is full-length GST–MLV IN(1–408) (murine leukemia virus (MLV)). The experiment in a line: pull-down.
Chain of full-length GST–MLV IN(1–408) (murine leukemia virus (MLV)) (P03355 1331-1738 limits assumed): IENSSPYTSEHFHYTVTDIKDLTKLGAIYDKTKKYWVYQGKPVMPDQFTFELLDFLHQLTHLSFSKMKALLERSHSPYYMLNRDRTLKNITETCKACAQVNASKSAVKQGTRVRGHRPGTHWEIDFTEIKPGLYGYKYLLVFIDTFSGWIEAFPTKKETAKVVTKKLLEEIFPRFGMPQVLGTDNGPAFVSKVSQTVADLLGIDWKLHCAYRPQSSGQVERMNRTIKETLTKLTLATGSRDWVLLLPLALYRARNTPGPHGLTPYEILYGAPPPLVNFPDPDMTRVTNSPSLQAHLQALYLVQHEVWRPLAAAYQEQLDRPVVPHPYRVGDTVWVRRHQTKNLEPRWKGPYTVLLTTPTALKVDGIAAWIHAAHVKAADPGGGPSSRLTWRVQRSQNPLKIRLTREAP
Conditions: not given
With “6xHis–Brd4 B/BID(462–599) (from UniProt O60885 462-599) (domain or fragment)”, the Kd was > 2000 nM. Regarding “6xHis–Brd4 ET(600–678) (from UniProt O60885 600-678) (domain or fragment)”, the Kd came out at 205 nM.

“6xHis–Brd4 ET/SEED(600–720) (from UniProt O60885 600-720) (domain or fragment)” showed a Kd of 206 nM. Regarding “6xHis–Brd4(1–720) (from UniProt O60885 1-720) (natural protein)”, the Kd is 58.4 nM.

With “6xHis–cBrd4(462–720) (from UniProt O60885 462-720) (domain or fragment)”, the Kd came out at 77.3 nM. On the same count and under the same terms, the result for “6xHis–nBrd4(1–461) (from UniProt O60885 1-461) (domain or fragment)” reads > 2000 nM.
